Test results published in patent US20260061042A1, “POLYNUCLEOTIDE COMPOSITIONS AND USES THEREOF” (Pfizer Inc., priority 2024, published 2026).
Entries after “also recorded” stand apart in the source; their conditions may differ.

Key:
[1] = PapG Luminex ligand binding assay with globoside GbO4; conditions: result in words
Description: 9. PapG Ligand Binding Assay with Globoside GbO4
To determine the ability of PapGLD mutants to bind the porcine derived globotetraosyl ceramide ligand GalNAc-Gal-Gal-Glc-ceramide (GbO4), a Luminex ligand binding assay was developed. Surfactant Protein-A (SP-A) was coupled to the surface of MagPlex beads by EDC/NHS, to capture the lipid tail of the globotetraosyl ceramide. The Globotetraosyl ceramide/SP-A beads were incubated with an eight-point threefold titration of PapG in a 96 well flat bottom white plate with final volume of 100 microliters of 50 mM HEPES PH 7.4, 10 mM NaCl, 0.0005% Tween 20 shaking at 300 rpm, 4° C. overnight. After 20-24 hours the ligand binding plates were read on a FlexMap 3D plate reader for measurement of well-bead region specific MFI. Ligand binding equilibrium dissociation constants (Kd) were calculated assuming one site specific binding and interpolated using non-linear curve fitting (GraphPad Prism) as the ligand concentration needed to achieve half-maximal binding. The Luminex derived apparent Kd values are based on approximately fifty bead counts per assay sample.
Binding of PapG proteins to GbO2 or GbO4 ligands was evaluated using a Luminex platform wherein ligands were coupled to MagPlex beads via surfactant protein A (for […]) or directly using […] conjugation (for […]). This assay was used to rank order binding affinities of the mutants, reported as Kd values interpolated from protein antigen titration curves (Table 7).

[2] = Thermal shift (SYPRO orange) melting temperature, apo form; type: physicochemical; conditions: apo state, PBS pH 7.4
Description: PapG proteins were added to assay buffer (consisting of 4% DMSO, 1:1000 dilution of SYPRO orange (Invitrogen S6650) in PBS pH 7.4) at a final concentration of […]. Melt curves were analyzed in a QuantStudio 6 Real-time PCR system (ThermoFisher) using a dissociation protocol from 25° C. to 99° C., at 0.05° C./second. ROX was specified as the reporter.
The thermal stability of PapG WT and mutant proteins were determined using a SYPRO orange thermal shift-based differential scanning fluorimetry assay, wherein Tm designates the temperature at which 50% of the protein is unfolded. Non-covalent ligands often stabilize protein targets upon specific binding, resulting in an increase in protein melting temperature. Tm were therefore determined in the presence and absence of GbO3 for PapG, and the difference in Tm (ΔTm) of protein in the presence of ligand relative to the apo form was calculated.

[3] = test system: E. coli strain CFT073 expressing the fimbrial adhesin PapG; experiment: PapG hemagglutination inhibition (HAI) assay on sera of mice immunized with PapG modRNA LNPs; type: in vivo; conditions: 1 μg, 50 μl IM
Description: Escherichia coli to the uroepithelium of human kidney. The PapG lectin binds to the globoside (GbO4) glycolipid, which is enriched in urinary tract tissue and consists of the tetrasacharide GalNAcβ1-3Galα1-4Galβ1-4Glc linked to ceramide. Here we present the use of a hemagglutination inhibition assay (HAI) to determine vaccine functional responses to protein subunit PapG or mRNA-expressed PapG antigens. In this assay the agglutination of human red blood cells (hRBCs) expressing GbO4 is caused by live E. coli CFT073 bacteria expressing PapG. The HAI assay measures the ability of PapG-elicited antibodies to prevent hRBC agglutination, exemplifying inhibition of the key bacterial adherence mechanism leading to clinical pyelonephritis. The assay was used to characterize the functional activity of PapG monoclonal antibodies (mAbs) raised against a PapG lectin domain subunit antigen. PapG HAI data from a mouse immunogenicity study are described that evaluated various 5 monovalent PapG modRNA LNPs and a PapG subunit comparator.
In this mouse study immunogenicity of different PapG mRNA constructs were evaluated. […]
iii. PapG Hemagglutination Inhibition Assay (HAI) 1. Preparation of Single Use Frozen E. coli CFT073 Banks Frozen bacterial stocks for use in the PapG HAI are stored at a concentration of ˜15 OD/mL. For stock preparation, take 6 ×100 μL of frozen parental strain CFT073 glycerol stock to seed six overnight cultures with ˜85 mL Luria's Broth (LB) each in 250 mL vented flasks. Flasks are shaken at 200 rpm and 37° C. overnight. On the same day, prepare 100 mL LB media with 30% glycerol and 0.4% sucrose by mixing […] 80% Glycerol with 0.8 mL 50% Sucrose in 64 mL LB and pre-chill at 4° C. After ˜16 h growth, determine the OD600 nm of each flask with the SpectraMax M5e plate reader by adding 100 μL culture to 900 μL LB (1:10 dilution). After reading the OD600, harvest cells by pelleting in a centrifuge at 4,000g, 4° C., for 30 minute. Determine the total OD of each of the six flasks, by multiplying the volume by OD/mL of each flask and divide by 15 OD to give the appropriate pellet resuspension volume. Discard supernatants and resuspend all pellets in the pre-chilled LB cryopreservant containing 30% glycerol and 0.4% sucrose, with a final volume as calculated above. Pool all resuspended pellets and mix gently, then aliquot into 1 mL/cryotube, and freeze at −70° C.
2. Preparing 10% hRBC Working Solution From Stock
Gently mix human red blood cells (hRBC) bottle (Rockland) by rocking ˜20×times, pipet out 10 mL of the hRBCs into a 15 ml conical tube. Centrifuge at 2,000 rpm(˜990×g) for 10 minutes and 4° C. Aspirate and discard the supernatant, then resuspend the pellet with 9 mL 4° C. PBS. The packed hRBCs in 15 mL conical tube should constitute roughly 1 mL of this total volume. Store these 10% hRBCs at 4° C. until use. […]
iv. PapG Hemagglutination Inhibition (HAI) Assay
The PapG hemagglutination inhibition (HAI) assay uses human red blood cells (hRBCs), which naturally express the PapG ligand GbO4 (globotetraosyl ceramide) on the cell surface, and the E. coli strain CFT073 expressing the fimbrial adhesin PapG. Upon mixing bacteria with hRBCs, […] cells remain suspended (presenting as a cloudy well), while no binding results in the red blood cells falling out of solution towards the center of the well (observed as pellet).
The total final well volume is 100 μL, with serum dilutions comprising 25 μL of this volume, strain CFT073 cells in […] volume, and hRBCs in a 50 μL volume. The assay plate is a V-bottom plate to which 25 μL 4° C. PBS is initially added to all wells. The positive control wells receive an additional 25 μL 4° C. PBS. The no-serum negative control consists of E. coli CFT073 cells plus hRBCs only (resulting agglutinated well appears cloudy). To accommodate pre-diluted sera transferred from the serum Master Dilution plate (MDP) an extra 5 μL 4° C. PBS is added to wells in Row A of the assay plate (columns 1 to 12). […]

Molecule | binding to GbO4 ligand [1] | Tm (Ave.) [2] [°C] | Step Titer GMT (HAI) ([3]; weeks 0, 4, bleed week 6, GMT of individual titers) | Step Titer Pool (HAI) ([3]; weeks 0, 4, bleed week 6, serum pool)
PapG^LD N96S G104A: PapG lectin domain N96S with G104A ligand binding site mutation; SEQ ID NO: 16 (protein) METDTLLLWVLLLWVPGSTGWNNIVFYSLGNVNSYQGGNVVITQRPQFITSWRPGIATVTWNQCNGPEFADGSWAYYREYIAWVVFPKKVMTKNGYPLFIEVHNKGSWSEENTGDSDSYFFLKAYKWDERAFDAGNLCQKPGETTRLTEKFNDIIFKVALPADLPLGDYSVTIPYTSGIQRHFASYLGARFKIPYNVAKTLPRENEMLFLFKNIGG | prevent binding to GbO4; also recorded: lower the binding affinity; also recorded: eliminate ligand binding | 64.54 | – | –
PapG^LD N96S WTv1: WT PapG lectin domain (V1, first PapG operon), N96S removes non-native glycosylation, His-tagged; SEQ ID NO: 13 (protein, His tag) METDTLLLWVLLLWVPGSTGWNNIVFYSLGNVNSYQGGNVVITQRPQFITSWRPGIATVTWNQCNGPEFADGSWAYYREYIAWVVFPKKVMTKNGYPLFIEVHNKGSWSEENTGDSDSYFFLKGYKWDERAFDAGNLCQKPGETTRLTEKFNDIIFKVALPADLPLGDYSVTIPYTSGIQRHFASYLGARFKIPYNVAKTLPRENEMLFLFKNIGG | – | 61.29 | – | –
PapG^LD N96S G122A: PapG lectin domain N96S with G122A putative conformation stabilizing mutation; SEQ ID NO: 20 (protein) METDTLLLWVLLLWVPGSTGWNNIVFYSLGNVNSYQGGNVVITQRPQFITSWRPGIATVTWNQCNGPEFADGSWAYYREYIAWVVFPKKVMTKNGYPLFIEVHNKGSWSEENTGDSDSYFFLKGYKWDERAFDAGNLCQKPAETTRLTEKFNDIIFKVALPADLPLGDYSVTIPYTSGIQRHFASYLGARFKIPYNVAKTLPRENEMLFLFKNIGG | reduced binding | – | – | –
BMD576_PapG-DSF K172A_Thy1-GPI: monovalent PapG modRNA LNP; RNA construct SEQ ID NO: 66 (nucleic acid, modRNA in LNP) AGGAGGACUGGUCGAACCUGCAUAGUGAUCAUAAGGUCAGCAUAGCCACCAUGGAGACCGACACCCUCCUGCUGUGGGUGCUGUUACUGUGGGUGCCCGGUAGCACCGGCUGGAACAACAUCGUGUUCUACAGCCUGGGCAACGUGAACAGCUACCAAGGCGGCAACGUGGUGAUCACACAGAGACCUCAGUUCAUCACAAGCUGGAGACCCGGCAUCGCCACCGUGACCUGGAAUCAGUGCAACGGCCCCGAGUUCGCCGACGGCAGCUGGGCCUACUACAGAGAGUACAUCGCCUGGGUGGUGUUCCCCAAGAAGGUGAUGACCAAGAACGGCUACCCCCUGUUCAUCGAGGUGCACAACAAGGGCAGCUGGAGCGAGGAGAACACCGGCGACAGCGACAGCUACUUCUUCCUGAAGGGCUACAAGUGGGACGAGAGAGCCUUCGACGCCGGCAACCUGUGUCAGAAGCCGGGGGAGACCACAAGACUUACCGAGAAGUUCAACGACAUCAUCUUCAAGGUGGCCCUGCCCGCCGACCUGCCCCUGGGCGACUACAGCGUGACCAUCCCCUACACAAGCGGCAUUCAGAGACACUUCGCUAGCUACCUGGGCGCUAGAUUCGCCAUCCCCUACAACGUGGCCAAGACCCUGCCUAGAGAGAACGAGAUGCUGUUCCUGUUCAAGAACAUCGGCGGCUGCAGACCUAGCGCUCAGAGCCUGGAGAUCAAGCACGGCGACCUGAGCAUCAACAGCGCCAACAACCACUACGCCGCUCAGACCCUGAGCGUGAGCUGCGACGUGCCCGCCAACAUCAGAUUCAUGCUGCUGAGAUCAACCACCCCCACCUACAGCCACGGCAAGAAGUUCAGCGUGGGCCUGGGCCACGGCUGGGACAGCAUCGUGAGCGUGAACGGCGUGGACACGGGCGAGACCACUAUGCGUUGGUACAAGGCCGGCACACAGAGCCUGACCAUCGGCAGCAGACUGUAUGGCGAAAGCUCCAAAAUCCAACCCGGCGUGCUGUCGGGGAGCGCCACCCUGCUGAUGAUACUGCCCGGAGGCAGCAGCGGCGGCGCCGACGUGCAGAUCAACAUCAGAGGCAACGUGUAUAUUCCGCCUAGCAGUGGUGGUGGGGGUAGCUCCGGCUCCGGAAGCAGCUGCGAGGGCAUCAGCCUGCUGGCUCAGAACACAAGCUGGCUGCUGCUGCUGCUGCUGAGCCUGAGCCUGCUGCAAGCCACCGACUUCAUGAGCCUGUGAUGAGCUCGCUUUCUUGCUGUCCAAUUUCUAUUAAAGGUUCCUUUGUUCCCUAAGUCCAACUACUAAACUGGGGGAUAUUAUGAAGGGCCUUGAGCAUCUGGAUUCUGCCUAAUAAAAAACAUUUAUUUUCAUUGCAAAAAAAAAAAAAAAAAAAAAAAAAAAAAAAAAAAAAAAAAAAAAAAAAAAAAAAAAAAAAAAAAAAAAAAAAAAAAAAAAA | – | – | 85,681 | 81,000
PapG^DSF N96S N242S N286S: Full-length donor strand complemented PapG, fully aglycosylated at N96S, N242S and N286S, His-tagged (protein) WNNIVFYSLGNVNSYQGGNVVITQRPQFITSWRPGIATVTWNQCNGPEFADGSWAYYREYIAWVVFPKKVMTKNGYPLFIEVHNKGSWSEENTGDSDSYFFLKGYKWDERAFDAGNLCQKPGETTRLTEKFNDIIFKVALPADLPLGDYSVTIPYTSGIQRHFASYLGARFKIPYNVAKTLPRENEMLFLFKNIGGCRPSAQSLEIKHGDLSINSANNHYAAQTLSVSCDVPANIRFMLLRSTTPTYSHGKKFSVGLGHGWDSIVSVNGVDTGETTMRWYKAGTQSLTIGSRLYGESSKIQPGVLSGSATLLMILPGGSSGGADVQINIRGNVYIPP | – | 61.82 | – | –
